Laboratory results: patent US20170037124A1 (Regeneron, published 2017)

What was measured:
[1] = target: T1, human ANGPTL8 peptide (hANGPTL8 peptide, SEQ ID NO: 337) (human); assay: SPR, captured mAb, 500 nM peptide, 25C
T1 construct: also called N-terminal region ANGPTL8 peptide
T1 peptide: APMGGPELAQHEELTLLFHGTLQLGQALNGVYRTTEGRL
Description: (§1) The assay utilized a format where ANGPTL8 antibodies were captured on the sensor surface and peptides were injected over the antibody surface. Peptides from the N-terminal coiled-coil region of human ANGPTL3 (hANGPTL3 peptide, SEQ ID NO: 338) and human ANGPTL4 (hANGPTL4 peptide, SEQ ID NO: 339) were also included as controls. Also included was a control antibody (H4H268P from US2011/0159015A1) that binds to the ANGPTL4 peptide and a negative isotype control antibody. All binding studies were performed in 10 mM HEPES pH 7.4, 150 mM NaCl, 3 mM EDTA, and 0.05% v/v Surfactant Tween-20 (HBS-ET running buffer) at 25° C. The HCA sensor surface was derivatized via amine coupling to a monoclonal mouse anti-human Fc antibody (GE, # BR-1008-39), and to this surface was captured approximately 1000 RU of each ANGPTL8 antibody or control antibody. Peptide stock solutions were diluted in HBS-ET running buffer to 500 nM and injected over the antibody-captured surfaces for 4 minutes at a flow rate of 30 μL/minute followed by the dissociation of bound peptide in HBS-ET running buffer for 10 minutes.
(§2) Dissociative half-lives (t½) were calculated from kd as: […]

[2] = target: T2, peptide from the N-terminal coiled-coil region of human ANGPTL3 (hANGPTL3 peptide, SEQ ID NO: 338) (human); assay: SPR, captured mAb, 500 nM peptide, 25C
T2 construct: also called hANGPTL3 shift peptide
T2 peptide: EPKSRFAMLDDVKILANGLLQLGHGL
Description: as §1, §2

[3] = target: T3, peptide from the N-terminal coiled-coil region of human ANGPTL4 (hANGPTL4 peptide, SEQ ID NO: 339) (human); assay: SPR, captured mAb, 500 nM peptide, 25C
T3 peptide: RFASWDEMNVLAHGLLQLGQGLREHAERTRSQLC
Description: as §1, §2

[4] = target: T4, anti-mFc (AMC) Octet biosensor, blank; assay: BLI Octet, blank AMC sensor, 100 nM mAb, 25C
T4 construct: Sensor without captured protein, used as blank; also called Blank AMC Sensor
Description: (§3) Binding of ANGPTL8 antibodies to human and monkey ANGPTL8 proteins was investigated using Bio-layer Interferometry with an Octet HTX biosensor platform (ForteBio, A Division of Pall Life Sciences). All experiments were performed at 25° C. in 10 mM HEPES pH 7.4, 150 mM NaCl, 0.05% v/v Surfactant Tween-20, and 1 mg/ml BSA with the reaction multiwell plate agitated at 1000 rpm. Approximately 1.6 nm of human ANGPTL8 produced with a C-terminal mouse IgG2a Fc tag (hANGPTL8-mFc; SEQ ID NO: 340) or cynomolgus monkey ANGPTL8 produced with a C-terminal mouse IgG2a Fc tag (MfANGPTL8-mFc; SEQ ID NO: 341) was captured onto anti-mFc (AMC) Octet biosensors by submerging the sensors into wells containing 10 μg/mL of each protein for 4 minutes. Under the same conditions a negative control protein with the same mFc tag (hLDLR-mFc) was also coupled to the AMC sensor. All four sensors, […] and one blank, were then submerged into wells containing 100 nM of different ANGPTL8 monoclonal antibodies or an isotype control for 4 minutes.

[5] = target: T5, human ANGPTL8 expressed with C-terminal mouse IgG2a Fc tag (hANGPTL8-mFc; SEQ ID NO: 340) (human); assay: BLI Octet, captured antigen, 100 nM mAb, 25C
T5 construct: also called Angiopoietin-like protein 8
T5 chain: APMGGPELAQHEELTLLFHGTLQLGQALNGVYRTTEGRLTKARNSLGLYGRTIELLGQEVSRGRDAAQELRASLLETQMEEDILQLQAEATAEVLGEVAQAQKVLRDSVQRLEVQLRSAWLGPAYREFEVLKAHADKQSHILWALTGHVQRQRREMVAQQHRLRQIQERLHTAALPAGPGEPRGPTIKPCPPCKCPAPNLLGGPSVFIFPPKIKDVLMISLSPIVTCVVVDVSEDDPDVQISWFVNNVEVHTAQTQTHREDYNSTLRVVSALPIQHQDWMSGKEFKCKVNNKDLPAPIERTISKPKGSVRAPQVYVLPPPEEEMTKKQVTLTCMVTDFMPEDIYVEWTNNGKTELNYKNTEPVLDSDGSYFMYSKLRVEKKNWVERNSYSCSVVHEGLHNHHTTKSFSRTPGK
Description: as §3

[6] = target: T6, monkey ANGPTL8 expressed with C-terminal mouse IgG2a Fc tag (MfANGPTL8-mFc; SEQ ID NO: 341) (cynomolgus monkey); assay: BLI Octet, captured antigen, 100 nM mAb, 25C
T6 construct: also called cynomolgus monkey ANGPTL8
T6 chain: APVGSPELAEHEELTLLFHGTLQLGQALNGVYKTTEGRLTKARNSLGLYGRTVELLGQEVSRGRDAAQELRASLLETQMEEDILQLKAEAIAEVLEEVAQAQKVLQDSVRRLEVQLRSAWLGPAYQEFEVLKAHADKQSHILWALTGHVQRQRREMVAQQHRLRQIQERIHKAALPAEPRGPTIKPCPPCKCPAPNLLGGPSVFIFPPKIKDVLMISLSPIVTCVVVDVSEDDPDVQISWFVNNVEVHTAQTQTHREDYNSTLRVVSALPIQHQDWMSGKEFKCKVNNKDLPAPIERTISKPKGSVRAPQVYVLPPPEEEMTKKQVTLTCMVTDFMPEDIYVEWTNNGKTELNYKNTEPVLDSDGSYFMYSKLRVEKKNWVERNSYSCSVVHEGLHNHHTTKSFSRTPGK
Description: as §3

B1: H4H15355P2 (antibody, human IgG4, V domains shown)
VH: QVQLVESGGGVVQPGRSLRLSCAASGFTFTNYAMHWVRQAPGKGLEWVAVISYDGSHTYFADSVKGRFTMSRDNSKNTISLQMNSLRPEDTAVYFCAGGGATTWFYFYGLDVWGQGTTVTVSS
VL: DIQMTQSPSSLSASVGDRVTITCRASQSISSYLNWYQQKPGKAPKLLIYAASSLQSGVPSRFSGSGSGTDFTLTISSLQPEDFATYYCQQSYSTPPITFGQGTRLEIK
notes: H4H prefix: human IgG4 Fc
500 nM hANGPTL8 peptide Bound (RU) [1]: 0 RU
binding result [1]: no binding (tested: <9 RU at 500 nM peptide)
500 nM hANGPTL3 peptide Bound (RU) [2]: 0 RU
binding result [2]: no binding (tested: <9 RU at 500 nM peptide)
500 nM hAngPTL4 peptide Bound (RU) [3]: 0 RU
binding result [3]: no binding (tested: <9 RU at 500 nM peptide)
mAb Binding Response (nm) [4]: 0.03 nm
mAb Binding Response (nm) [5]: 0.15 nm
mAb Binding Response (nm) [6]: 0.13 nm

B2: H4H15335P (antibody, human IgG4, V domains shown)
VH: QVQLVESGGGVVQPGRSLRLSCAASGFTFNNYGIHWVRQAPGKGLEWVAVISYDESNKYYADSVKGRFTISRDNSKNTLYLQMNSLRAEDTAVYYCAKDIRIAARRHYYYYGMDVWGQGTTVTVSS
VL: DIQMTQSPSSVSASVGDRVTITCRASQGISRWLAWYQQKPGKAPKLLIYAASSLESGVPARFSGSGSGTDFTLTISSLQPEDFATYYCQQANSFPITFGPGTKVDIK
notes: H4H prefix: human IgG4 Fc
500 nM hANGPTL8 peptide Bound (RU) [1]: 0 RU
binding result [1]: no binding (tested: <9 RU at 500 nM peptide)
500 nM hANGPTL3 peptide Bound (RU) [2]: -1 RU
500 nM hAngPTL4 peptide Bound (RU) [3]: 1 RU
binding result [3]: no binding (tested: <9 RU at 500 nM peptide)
mAb Binding Response (nm) [4]: 0.01 nm
mAb Binding Response (nm) [5]: 0.06 nm
mAb Binding Response (nm) [6]: 0.04 nm

B3: H4H15314P2 (antibody, human IgG4, V domains shown)
VH: QVQLVQSGAEVKKPGASVKVSCKASGYTFTSYDINWVRQATGQGLEWMGWMNPNGDNTGYAQKFQGRVTMTGDTSISTAYMELSSLRSEDTAVYYCAREGIWGFDPWGQGTLVTVSS
VL: DIQMTQSPSSLSASVGDRVTITCRASQDIRNDLGWYQQKPGKAPKRLIYAASSLQSGVPSRFSGSGSGTEFTLTISSLQPEDFATFYCLQHNTFPRTFGQGTKVEIK
notes: H4H prefix: human IgG4 Fc
500 nM hANGPTL8 peptide Bound (RU) [1]: 0 RU
binding result [1]: no binding (tested: <9 RU at 500 nM peptide)
500 nM hANGPTL3 peptide Bound (RU) [2]: 0 RU
binding result [2]: no binding (tested: <9 RU at 500 nM peptide)
500 nM hAngPTL4 peptide Bound (RU) [3]: 1 RU
binding result [3]: no binding (tested: <9 RU at 500 nM peptide)
mAb Binding Response (nm) [4]: 0 nm
mAb Binding Response (nm) [5]: 0.04 nm
mAb Binding Response (nm) [6]: 0.01 nm

B4: H4H15361P2 (antibody, human IgG4, V domains shown)
VH: EVQLVESGGGLVQPGRSLRLSCTASGFSFGDNAMGWVRQAPGKGLEWVSFIRRKASGGTTEYAASVKGRFTISRDDSKSIAYLQMNSLKTEDTGVYYCTRGGAVYGYWGQGTLVTVSS
VL: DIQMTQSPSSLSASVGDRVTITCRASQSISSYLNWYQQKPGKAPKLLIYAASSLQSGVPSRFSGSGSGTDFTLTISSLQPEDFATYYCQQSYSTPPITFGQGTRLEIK
notes: H4H prefix: human IgG4 Fc
500 nM hANGPTL8 peptide Bound (RU) [1]: 4 RU
binding result [1]: no binding (tested: <9 RU at 500 nM peptide)
500 nM hANGPTL3 peptide Bound (RU) [2]: 0 RU
binding result [2]: no binding (tested: <9 RU at 500 nM peptide)
500 nM hAngPTL4 peptide Bound (RU) [3]: 0 RU
binding result [3]: no binding (tested: <9 RU at 500 nM peptide)
mAb Binding Response (nm) [4]: 0.02 nm
mAb Binding Response (nm) [5]: 0.2 nm
mAb Binding Response (nm) [6]: 0.21 nm

B5: H4H15363P2 (antibody, human IgG4, V domains shown)
VH: EVQLVESGGGLVQPGGSLRLSCAASGFTFSNYAMSWVRQVPGKGLEWVSTISGSGGSTYYADSVKGRFTISRDNSKNSLYLQMNSLRAEDTAVYYCAKLVRGVIGWFDPWGQGTLVTVSS
VL: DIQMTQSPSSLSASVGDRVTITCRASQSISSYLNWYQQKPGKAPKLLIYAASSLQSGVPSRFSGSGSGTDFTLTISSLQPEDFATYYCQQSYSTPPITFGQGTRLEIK
notes: H4H prefix: human IgG4 Fc
500 nM hANGPTL8 peptide Bound (RU) [1]: 0 RU
binding result [1]: no binding (tested: <9 RU at 500 nM peptide)
500 nM hANGPTL3 peptide Bound (RU) [2]: 0 RU
binding result [2]: no binding (tested: <9 RU at 500 nM peptide)
500 nM hAngPTL4 peptide Bound (RU) [3]: 0 RU
binding result [3]: no binding (tested: <9 RU at 500 nM peptide)
mAb Binding Response (nm) [4]: 0.02 nm
mAb Binding Response (nm) [5]: 0.25 nm
mAb Binding Response (nm) [6]: 0.26 nm

B6: H4H15354P2 (antibody, human IgG4, V domains shown)
VH: QVQLVESGGGVVQPGRSLRLSCTASGFTFNNYGIHWVRQAPGKGLEWVAVISYDGSNKFYAESVRGRFTISRDNSRNTLFLQMISLRGEDSAVYYCAKDRPYYDILTAHYPSDYYFYAMDVWGHGTTVTVSS
VL: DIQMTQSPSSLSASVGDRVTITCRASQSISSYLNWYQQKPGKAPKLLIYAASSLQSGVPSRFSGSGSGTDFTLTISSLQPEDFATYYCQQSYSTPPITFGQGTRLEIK
notes: H4H prefix: human IgG4 Fc
500 nM hANGPTL8 peptide Bound (RU) [1]: 0 RU
binding result [1]: no binding (tested: <9 RU at 500 nM peptide)
500 nM hANGPTL3 peptide Bound (RU) [2]: 0 RU
binding result [2]: no binding (tested: <9 RU at 500 nM peptide)
500 nM hAngPTL4 peptide Bound (RU) [3]: 0 RU
binding result [3]: no binding (tested: <9 RU at 500 nM peptide)
mAb Binding Response (nm) [4]: 0.02 nm
mAb Binding Response (nm) [5]: 0.05 nm
mAb Binding Response (nm) [6]: 0.03 nm

B7: H4H15347P (antibody, human IgG4, V domains shown)
VH: EVQLVESGGGLVQPGGSLRLSCAASGFTFRNYAMNWARQAPGKGLEWVSGITGSGGATYYADSVKGRFTISRENSKNTLFLQMDTLRAEDTAVYYCAKDRRYFPTSGGPQWGQGTLVTVSS
VL: DIVMTQSPLSLPVTPGEPASISCRSSRSLLHSSGYNYLDWYLQKPGQSPQLLLYLGSNRASGVPDRFSGSGSGTYFTLKISRVDAEDVGVYYCMQALQTPWTFGQGTKVEIK
notes: H4H prefix: human IgG4 Fc
500 nM hANGPTL8 peptide Bound (RU) [1]: 0 RU
binding result [1]: no binding (tested: <9 RU at 500 nM peptide)
500 nM hANGPTL3 peptide Bound (RU) [2]: -1 RU
500 nM hAngPTL4 peptide Bound (RU) [3]: 0 RU
binding result [3]: no binding (tested: <9 RU at 500 nM peptide)
mAb Binding Response (nm) [4]: 0.03 nm
mAb Binding Response (nm) [5]: 0.25 nm
mAb Binding Response (nm) [6]: 0.29 nm

B8: H4H15357P2 (antibody, human IgG4, V domains shown)
VH: EVQLVESGGGLVKPGGSLRLSCTASGFTFGNAWMSWVRQAPGKGLEWVGLIKGKTDGGTTNYAAPVKGRFTISRDDSKNTLYLHLNSLRTEDTALYYCTTDQVELRQYYYYGLDVWGQGTTVTVSS
VL: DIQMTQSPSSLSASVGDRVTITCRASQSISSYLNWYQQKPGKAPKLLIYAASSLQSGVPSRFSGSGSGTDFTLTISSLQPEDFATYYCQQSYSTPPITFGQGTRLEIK
notes: H4H prefix: human IgG4 Fc
500 nM hANGPTL8 peptide Bound (RU) [1]: 0 RU
binding result [1]: no binding (tested: <9 RU at 500 nM peptide)
500 nM hANGPTL3 peptide Bound (RU) [2]: 0 RU
binding result [2]: no binding (tested: <9 RU at 500 nM peptide)
500 nM hAngPTL4 peptide Bound (RU) [3]: 0 RU
binding result [3]: no binding (tested: <9 RU at 500 nM peptide)
mAb Binding Response (nm) [4]: 0.02 nm
mAb Binding Response (nm) [5]: 0.13 nm
mAb Binding Response (nm) [6]: 0.08 nm
